Assay results reported in US20230399641A1.
Like-named read-outs stand apart in the source and are kept apart here.

Legend:
No hACE2 [1] = target: No hACE2
No hACE2 [2] = target: No hACE2; remark: listed apart in the source
No hACE2 [3] = target: No hACE2; remark: listed apart in the source

For “receptor binding domain (RBD) of HCoV-NL63 spike (residues 481-616) (from UniProt Q6Q1S2 481-616) (ligand)”, the % of cells in the PE-positive (RBD-bound) gate (No hACE2 [1]) was 0.37%.
“receptor binding domain (RBD) of SARS-CoV spike (residues 306-527) (from UniProt P59594 306-527) (ligand)” was tested, and the % of cells in the PE-positive (RBD-bound) gate (No hACE2 [2]) was 0.24%.
With “receptor binding domain (RBD) of wildtype SARS-CoV-2 spike (residues 319-541) (from UniProt P0DTC2 319-541) (ligand)” the % of cells in the PE-positive (RBD-bound) gate (No hACE2 [3]) was 0.17%.
